In PMC5339848:

Assays:
[1] = target: AP1M1 (mu subunit of the AP1 complex) (UniProt Q9BXS5); test: competitive binding with synthetic peptides, in vitro; conditions: reference: unphosphorylated peptide; sites Y8
[2] = target: AP2M1 (mu subunit of the AP2 complex) (UniProt Q96CW1); test: as above; conditions: reference: unphosphorylated peptide; sites Y8

Substance: mATG9 1-18 (from UniProt Q7Z3C6) pY8 peptide
- binding against the reference [1]: stronger
- binding against the reference [2]: stronger
